B1: 153/154 H5/PO (dsDNA)
DNA 1: AGTTGAGGACTTTCCAGGC
DNA 2: GCCTGGAAAGTCCTCAACT
modifications: strand 153: 5 3'-most linkages PS, strand 154 all PO
B2: 153/154 H8/H8 (dsDNA)
DNA 1: AGTTGAGGACTTTCCAGGC
DNA 2: GCCTGGAAAGTCCTCAACT
modifications: 8 3'-most linkages PS on both strands
B3: 153/154 H9/H9 (dsDNA)
DNA 1: AGTTGAGGACTTTCCAGGC
DNA 2: GCCTGGAAAGTCCTCAACT
modifications: 9 3'-most linkages PS on both strands
B4: 153/154 H8/H10 (dsDNA)
DNA 1: AGTTGAGGACTTTCCAGGC
DNA 2: GCCTGGAAAGTCCTCAACT
modifications: strand 153: 8 3'-most linkages PS, strand 154: 10 3'-most PS
B5: 153/154 H10/H8 (dsDNA)
DNA 1: AGTTGAGGACTTTCCAGGC
DNA 2: GCCTGGAAAGTCCTCAACT
modifications: strand 153: 10 3'-most linkages PS, strand 154: 8 3'-most PS
B6: decoy 113/114 C-Z (HIV NF-kB promoter) (dsDNA)
DNA 1: AGTTGAGGGGACTTTCCCAGGC
DNA 2: GCCTGGGAAAGTCCCCTCAACT
B7: 153/154 H10/H10 (dsDNA)
DNA 1: AGTTGAGGACTTTCCAGGC
DNA 2: GCCTGGAAAGTCCTCAACT
modifications: 10 3'-most linkages PS on both strands
B8: 153/154 H11/PO (dsDNA)
DNA 1: AGTTGAGGACTTTCCAGGC
DNA 2: GCCTGGAAAGTCCTCAACT
modifications: strand 153: 11 3'-most linkages PS, strand 154 all PO
B9: NF-κB p50 from nuclear extract of LPS stimulated THP-1 cells (human monocyte cell line) (other, UniProt P19838 1-433, looked up)
chain: MAEDDPYLGRPEQMFHLDPSLTHTIFNPEVFQPQMALPTDGPYLQILEQPKQRGFRFRYVCEGPSHGGLPGASSEKNKKSYPQVKICNYVGPAKVIVQLVTNGKNIHLHAHSLVGKHCEDGICTVTAGPKDMVVGFANLGILHVTKKKVFETLEARMTEACIRGYNPGLLVHPDLAYLQAEGGGDRQLGDREKELIRQAALQQTKEMDLSVVRLMFTAFLPDSTGSFTRRLEPVVSDAIYDSKAPNASNLKIVRMDRTAGCVTGGEEIYLLCDKVQKDDIQIRFYEEEENGGVWEGFGDFSPTDVHRQFAIVFKTPKYKDINITKPASVFVQLRRKSDLETSEPKPFLYYPEIKDKEEVQRKRQKLMPNFSDSFGGGSGAGAGGGGMFGSGGGGGGTGSTGPGYSFPHYGFPTYGGITFHPGTTKSNAGMKHG

Columns and labels:
[1] = molecular target: T1, NF-kB p50/p50 homodimer (NFKB1) (Homo sapiens, UniProt P19838 P19838:1-433); assay: competition; EMSA competition vs HIV NF-kB probe 113/114; conditions: protein: extract; tags: endogenous, nuclear extract of LPS-stimulated THP-1 cells; chain copies: 2 (stated)
Text: (§1) The EMSA assay was employed to characterize oligonucleotide decoys for the NF-κB transcription factor. […] Using the above modified oligonucleotides to compete for binding for the above-mentioned NF-κB family members, it was possible to compare the binding affinity of these oligonucleotides against the high affinity radiolabeled probe and each other. This assay has also enabled the design of a decoy which selectively binds particular members of the NF-κB family. By using increasing concentrations of various oligonucleotides, it was observed that, by deleting or changing targeted residues in the binding site, it was possible to specifically decrease the binding of the decoy molecule to p50/p50 homodimers, while retaining the affinity for p65/p50 and cRel/p50 heterodimers.
(§2) The NF-κB gel shift assays (EMSA) were performed as follows. A double-stranded oligonucleotide containing a consensus NF-κB binding site (5′ […] 3′) (SEQ ID NO: 78) was end-labeled with γ³²P-ATP using T4 Polynucleotide Kinase (Promega). Alternatively, a double-stranded ODN containing a consensus NF-κB binding site from the IL-6 promoter (5′ […] 3′) (SEQ ID NO: 94) was end-labeled with γ³²P-ATP using T4 Polynucleotide Kinase (Promega). One microgram of a nuclear extract prepared from LPS stimulated THP-1 cells (human monocyte cell line) was incubated with 35 fmol of radiolabeled probe in the presence or absence of competing unlabeled NF-κB double-stranded oligonucleotides (dsODN) or scrambled dsODN. The incubations were carried out at room temperature for 30 minutes in a 20 μl reaction volume composed of 10 mM Tris-HCl pH 8, 100 mM KCL, 5 mM MgCl2, 2 mM DTT, 10% Glycerol, 0.1% NP-40, 0.025% BSA and 1 μg Poly-dIdC. The reactions were loaded onto a 6% polyacrylamide gel, subjected to electrophoresis and dried. The dried gels were imaged and quantitated using a Typhoon 8600 PhosphorImager (Amersham) and ImageQuant software.

[2] = molecular target: NF-kB p65/p50 heterodimer (RelA/NFKB1) (Homo sapiens, UniProt Q04206;P19838 Q04206:1-551,P19838:1-433); assay: EMSA; competition vs 32P 113/114 probe, THP-1 nuclear extract, RT; conditions: protein: extract; tags: none; nuclear extract of LPS-stimulated THP-1 cells
Text: as §1
The NF-κB gel shift assays (EMSA) were performed as follows. A double-stranded oligonucleotide containing a consensus NF-κB binding site (5′ […] 3′) (SEQ ID NO: 78) was end-labeled with γ³²P-ATP using T4 Polynucleotide Kinase (Promega). Alternatively, a double-stranded ODN containing a consensus NF-κB binding site from the IL-6 promoter (5′ […] 3′) (SEQ ID NO: 94) was end-labeled with γ³²P-ATP using T4 Polynucleotide Kinase (Promega). […] The dried gels were imaged and quantitated using a Typhoon 8600 PhosphorImager (Amersham) and ImageQuant software.

[3] = molecular target: T1, NF-kB p50/p50 homodimer (NFKB1); assay: EMSA; competition vs 32P 113/114 probe; conditions: protein: extract; tags: none; nuclear extract of LPS-stimulated THP-1 cells; chain copies: 2 (stated homodimer)
Text: as §1, §2

[4] = molecular target: T2, NF-κB p65 from nuclear extract of LPS stimulated THP-1 cells (human monocyte cell line) (human, UniProt Q04206 1-551); assay: EMSA with antibody supershift, THP-1 nuclear extract; heterodimer on DNA probe
T2 construct: also called RelA
Protocol: as §2, with “software. […]” for “software.”

Sequence of NF-kB p65/p50 heterodimer (RelA/NFKB1) (Q04206 whole entry, one chain of several): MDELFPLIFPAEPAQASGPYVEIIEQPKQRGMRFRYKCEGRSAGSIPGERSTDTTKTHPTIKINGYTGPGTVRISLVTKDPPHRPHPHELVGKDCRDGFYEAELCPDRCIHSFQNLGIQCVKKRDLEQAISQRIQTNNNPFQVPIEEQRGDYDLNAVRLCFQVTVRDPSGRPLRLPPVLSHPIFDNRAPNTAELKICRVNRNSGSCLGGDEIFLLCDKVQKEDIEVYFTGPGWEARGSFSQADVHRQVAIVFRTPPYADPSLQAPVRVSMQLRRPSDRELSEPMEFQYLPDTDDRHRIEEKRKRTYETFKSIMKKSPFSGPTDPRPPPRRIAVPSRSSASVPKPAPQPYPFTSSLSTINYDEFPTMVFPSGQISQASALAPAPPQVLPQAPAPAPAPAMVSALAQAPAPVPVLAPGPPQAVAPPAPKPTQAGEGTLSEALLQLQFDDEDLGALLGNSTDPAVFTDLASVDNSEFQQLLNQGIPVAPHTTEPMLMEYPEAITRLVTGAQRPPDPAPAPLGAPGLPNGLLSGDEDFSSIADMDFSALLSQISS
T2 sequence (Q04206 whole entry): as the sequence (Q04206 whole entry, one chain of several) above

Binder	IC50 [1]	also measured
B1	83 fold molar excess	
B2	53 fold molar excess	
B3	30 fold molar excess	
B4	39 fold molar excess	
B5	21 fold molar excess	
B6		IC50 [2]: 5 fold molar excess; IC50 [3]: 5 fold molar excess
B7	42 fold molar excess	
B8	33 fold molar excess	
B9		binding result [4]: binds

Reference: patent US20070078102A1, “NF-kB oligonucleotide decoy molecules” (published 2007)
